B1: X69-C09 (IgG) (antibody, V domains shown)
VH: EVQLLESGGGLVQPGGSLRLSCAASGFTFSAYSMIWVRQAPGKGLEWVSYIRPSGGRTTYADSVKGRFTISRDNSKNTLYLQMNSLRAEDTAVYYCARGGLLLWFRELKSNYFDYWGQGTLVTVSS
VL: DIQMTQSPSSLSAFVGDRVTITCRASQPIDNYLNWYHQKPGKAPKLLIYAASRLQSGVPSRLSGSGFGTDFTLTISSLQPEDFGNYYCQQSYTVPYTFGGGTKVEIR
notes: Full length human IgG1; printed HC runs into CH1; also called Parental
B2: X67-C09 (IgG) (antibody, V domains shown)
VH: EVQLLESGGGLVQPGGSLRLSCAASGFTFSAYSMIWVRQAPGKGLEWVSYIRPSGGRTTYADSVKGRFTISRDNSKNTLYLQMNSLRAEDTAVYYCARGGLLLWGRELKSNYFDYWGQGTLVTVSS
VL: DIQMTQSPSSLSAFVGDRVTITCRASQPIDNYLNWYHQKPGKAPKLLIYAASRLQSGVPSRLSGSGFGTDFTLTISSLQPEDFGNYYCQQSYTVPYTFGGGTKVEIR
notes: printed HC runs into CH1
B3: X67-C03 (IgG) (antibody, V domains shown)
VH: EVQLLESGGGLVQPGGSLRLSCAASGFTFSAYSMIWVRQAPGKGLEWVSYIRPSGGRTTYADSVKGRFTISRDNSKNTLYLQMNSLRAEDTAVYYCARGGLLLWMRELKSNYFDYWGQGTLVTVSS
VL: DIQMTQSPSSLSAFVGDRVTITCRASQPIDNYLNWYHQKPGKAPKLLIYAASRLQSGVPSRLSGSGFGTDFTLTISSLQPEDFGNYYCQQSYTVPYTFGGGTKVEIR
notes: printed HC runs into CH1
B4: X67-F01 (IgG) (antibody, V domains shown)
VH: EVQLLESGGGLVQPGGSLRLSCAASGFTFSAYSMIWVRQAPGKGLEWVSYIRPSGGRTTYADSVKGRFTISRDNSKNTLYLQMNSLRAEDTAVYYCARGGLLLWQRELKSNYFDYWGQGTLVTVSS
VL: DIQMTQSPSSLSAFVGDRVTITCRASQPIDNYLNWYHQKPGKAPKLLIYAASRLQSGVPSRLSGSGFGTDFTLTISSLQPEDFGNYYCQQSYTVPYTFGGGTKVEIR
notes: printed HC runs into CH1
B5: X67-E04 (IgG) (antibody, V domains shown)
VH: EVQLLESGGGLVQPGGSLRLSCAASGFTFSAYSMIWVRQAPGKGLEWVSYIRPSGGRTTYADSVKGRFTISRDNSKNTLYLQMNSLRAEDTAVYYCARGGLLLWDRELKSNYFDYWGQGTLVTVSS
VL: DIQMTQSPSSLSAFVGDRVTITCRASQPIDNYLNWYHQKPGKAPKLLIYAASRLQSGVPSRLSGSGFGTDFTLTISSLQPEDFGNYYCQQSYTVPYTFGGGTKVEIR
notes: printed HC runs into CH1
B6: X67-F10 (IgG) (antibody, V domains shown)
VH: EVQLLESGGGLVQPGGSLRLSCAASGFTFSAYSMIWVRQAPGKGLEWVSYIRPSGGRTTYADSVKGRFTISRDNSKNTLYLQMNSLRAEDTAVYYCARGGLLLWTRELKSNYFDYWGQGTLVTVSS
VL: DIQMTQSPSSLSAFVGDRVTITCRASQPIDNYLNWYHQKPGKAPKLLIYAASRLQSGVPSRLSGSGFGTDFTLTISSLQPEDFGNYYCQQSYTVPYTFGGGTKVEIR
notes: printed HC runs into CH1
B7: X67-B03 (IgG) (antibody, V domains shown)
VH: EVQLLESGGGLVQPGGSLRLSCAASGFTFSAYSMIWVRQAPGKGLEWVSYIRPSGGRTTYADSVKGRFTISRDNSKNTLYLQMNSLRAEDTAVYYCARGGLLLWSRELKSNYFDYWGQGTLVTVSS
VL: DIQMTQSPSSLSAFVGDRVTITCRASQPIDNYLNWYHQKPGKAPKLLIYAASRLQSGVPSRLSGSGFGTDFTLTISSLQPEDFGNYYCQQSYTVPYTFGGGTKVEIR
notes: printed HC runs into CH1
B8: X67-H04 (IgG) (antibody, V domains shown)
VH: EVQLLESGGGLVQPGGSLRLSCAASGFTFSAYSMIWVRQAPGKGLEWVSYIRPSGGRTTYADSVKGRFTISRDNSKNTLYLQMNSLRAEDTAVYYCARGGLLLWERELKSNYFDYWGQGTLVTVSS
VL: DIQMTQSPSSLSAFVGDRVTITCRASQPIDNYLNWYHQKPGKAPKLLIYAASRLQSGVPSRLSGSGFGTDFTLTISSLQPEDFGNYYCQQSYTVPYTFGGGTKVEIR
notes: printed HC runs into CH1; also called 559A-X67-H04
B9: X115-F02 (Fab, V domains shown)
VH: EVQLLESGGGLVQPGGSLRLSCAASGFTFSHYIMMWVRQAPGKGLEWVSGIYSSGGITVYADSVKGRFTISRDNSKNTLYLQMNSLRAEDTAVYYCAYRRIGVPRRDEFDIWGQGTMVTVSS
VL: DIQMTQSPSTLSASVGDRVTITCRASQSISSWLAWYQQKPGKAPKLLIYKASTLESGVPSRFSGSGSGTEFTLTISSLQPDDFATYYCQQYNTYWTFGQGTKVEIK
notes: also called 559A-X115-F02; 559A-X0115-F02
B10: X115-G04 (antibody, V domains shown)
VH: EVQLLESGGGLVQPGGSLRLSCAASGFTFSHYIMMWVRQAPGKGLEWVSGIYSSGGITVYADSVKGRFTISRDNSKNTLYLQMNSLRAEDTAVYYCAYRRTGVPRRDEFDIWGQGTMVTVSS
VL: DIQMTQSPSTLSASVGDRVTITCRASQSISSWLAWYQQKPGKAPKLLIYKASTLESGVPSRFSGSGSGTEFTLTISSLQPDDFATYYCQQYNTYWTFGQGTKVEIK
notes: also called 559A-X115-G04; 559A-X0115-G04
B11: X115-A03 (antibody, V domains shown)
VH: EVQLLESGGGLVQPGGSLRLSCAASGFTFSHYIMMWVRQAPGKGLEWVSGIYSSGGITVYADSVKGRFTISRDNSKNTLYLQMNSLRAEDTAVYYCAWRRIGVPRRDSFDMWGQGTMVTVSS
VL: DIQMTQSPSTLSASVGDRVTITCRASQSISSWLAWYQQKPGKAPKLLIYKASTLESGVPSRFSGSGSGTEFTLTISSLQPDDFATYYCQQYNTYWTFGQGTKVEIK
notes: also called 559A-X115-A03; 559A-X0115-A03
B12: X115-D01 (antibody, V domains shown)
VH: EVQLLESGGGLVQPGGSLRLSCAASGFTFSIYSMHWVRQAPGKGLEWVSSIYPSRGMTWYADSVKGRFTISRDNSKNTLYLQMNSLRAEDTAVYYCAYRRTGIPRRDAFDIWGQGTMVTVSS
VL: DIQMTQSPSTLSASVGDRVTITCRASQSISSWLAWYQQKPGKAPKLLIYKASTLESGVPSRFSGSGSGTEFTLTISSLQPDDFATYYCQQYNTYWTFGQGTKVEIK
notes: also called 559A-X115-D01; 559A-X0115-D01
B13: DX-2922 (antibody, V domains shown)
VH: EVQLLESGGGLVQPGGSLRLSCAASGFTFSHYLMTWVRQAPGKGLEWVSYISPSGGHTIYADSVKGRFTISRDNSKNTLYLQMNSLRAEDTAVYYCARVARGIAARSRTSYFDYWGQGTLVTVSS
VL: EIVLTQSPGTLSLSPGERATLSCRTSQFVNSNYLAWYQQKPGQAPRLLIYGASSRATGIPDRFSGSGSGTDFTLTISRLEPEDFAVYYCQQSSRTPWTFGQGTKVEIK
notes: also called X101-A01; 559A-X0101-A01
B14: X115-B07 (antibody, V domains shown)
VH: EVQLLESGGGLVQPGGSLRLSCAASGFTFSHYLMTWVRQAPGKGLEWVSYISPSGGHTIYADSVKGRFTISRDNSKNTLYLQMNSLRAEDTAVYYCAMVGQGIRGRSRTSYFAQWGQGTLVTVSS
VL: EIVLTQSPGTLSLSPGERATLSCRTSQFVNSNYLAWYQQKPGQAPRLLIYGASSRATGIPDRFSGSGSGTDFTLTISRLEPEDFAVYYCQQSSRTPWTFGQGTKVEIK
notes: also called 559A-X115-B07; 559A-X0115-B07

How the values were obtained:
[1] = target: T1, human plasma kallikrein (human, UniProt P03952 20-390; P03952 391-638); assay: Ki,app as an IgG, steady state enzyme kinetics, inhibition of human pKal
T1 construct: two disulfide linked chains; also called pKal; human pKal
T1 sequence (P03952 20-390, chain 1 of 2): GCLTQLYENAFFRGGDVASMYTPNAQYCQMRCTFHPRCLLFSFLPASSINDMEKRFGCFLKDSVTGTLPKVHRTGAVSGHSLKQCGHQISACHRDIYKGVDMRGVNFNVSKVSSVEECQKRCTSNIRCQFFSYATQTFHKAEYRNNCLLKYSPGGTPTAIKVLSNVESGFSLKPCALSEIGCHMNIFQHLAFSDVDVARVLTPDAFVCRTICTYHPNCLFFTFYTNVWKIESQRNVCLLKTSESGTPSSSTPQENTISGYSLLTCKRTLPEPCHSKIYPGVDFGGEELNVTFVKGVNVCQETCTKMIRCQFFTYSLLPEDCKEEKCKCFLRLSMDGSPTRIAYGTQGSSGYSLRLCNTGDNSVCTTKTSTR
T1 sequence (P03952 391-638, chain 2 of 2): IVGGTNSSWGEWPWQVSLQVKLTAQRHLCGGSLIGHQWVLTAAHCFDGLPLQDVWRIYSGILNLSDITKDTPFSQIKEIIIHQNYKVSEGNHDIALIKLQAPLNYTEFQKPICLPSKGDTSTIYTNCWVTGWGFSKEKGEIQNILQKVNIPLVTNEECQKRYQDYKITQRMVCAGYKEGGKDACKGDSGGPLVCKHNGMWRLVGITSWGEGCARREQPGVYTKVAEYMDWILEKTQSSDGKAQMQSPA

[2] = target: T2, pKal catalytic domain Mutant 1 (human, UniProt P03952 391-638, limits assumed); assay: apparent Ki (Ki,app), enzyme inhibition, pKal catalytic domain Mutant 1
T2 construct: domain: catalytic domain; Expressed in Pichia pastoris, purified by IMAC; not shown: His tag fusion
T2 sequence (P03952 other isoform, or with tags, fused parts or gaps mutant limits assumed): as the sequence (P03952 391-638, chain 2 of 2) above, with S88A, N91A, S135A, K136A counted along it
Experimental: (§1) Apparent Inhibition constants (K_{i,app} values) were measured by pre-incubating enzyme and inhibitor solutions prior to initiating the reactions with substrate. Enzyme and inhibitor were pre-incubated for 2 hours at 30° C. in a 96-well plate by adding 10 μL of a 10× enzyme solution and 10 μL of 10× inhibitor solutions to 70 μL of reaction buffer. Reactions were initiated by the addition of 10 μL of a 10× concentrated stock of substrate, and were monitored at 30° C. in a fluorescence plate reader with the excitation and emission wavelengths set at 360 nm/460 nm, respectively. Kinetic data were acquired by the increase in fluorescence, and initial rates for each condition were plotted against the total inhibitor concentration. The data was fit to the following equation for tight binding inhibitors: […]

[3] = target: T3, pKal catalytic domain Mutant 2 (human, UniProt P03952 391-638, limits assumed); assay: apparent Ki (Ki,app), enzyme inhibition, pKal catalytic domain Mutant 2
T3 construct: domain: catalytic domain; Expressed in Pichia pastoris, purified by IMAC; not shown: His tag fusion
T3 sequence (P03952 other isoform, or with tags, fused parts or gaps mutant limits assumed): as the sequence (P03952 391-638, chain 2 of 2) above, with R161A, Q163A, Y165A, T168A, R170A counted along it
Experimental: as §1

[4] = target: T4, wild type pKal catalytic domain (human, UniProt P03952 391-638, limits assumed); assay: apparent Ki (Ki,app), enzyme inhibition, wild type pKal catalytic domain
T4 construct: domain: catalytic domain; also called WT cat; Domain; not shown: His tag fusion
T4 sequence (P03952 391-638 limits assumed): as the sequence (P03952 391-638, chain 2 of 2) above
Experimental: as §1

| Binder | Ki [1] | Ki [2] | Ki [3] | Ki [4] |
| --- | --- | --- | --- | --- |
| B1 | 0.2 nM | – | – | – |
| B2 | 8.6 nM | – | – | – |
| B3 | 0.7 nM | – | – | – |
| B4 | 0.9 nM | – | – | – |
| B5 | 1.3 nM | – | – | – |
| B6 | 1.3 nM | – | – | – |
| B7 | 2.1 nM | – | – | – |
| B8 | 3.6 nM | – | – | – |
| B9 | – | 0.14 nM | 5.9 nM | 0.09 nM |
| B10 | – | 0.4 nM | 2.2 nM | 0.3 nM |
| B11 | – | 0.23 nM | 3.7 nM | 0.16 nM |
| B12 | – | 0.26 nM | 2.5 nM | 0.18 nM |
| B13 | – | 14 nM | 20 nM | 0.22 nM |
| B14 | – | 4.7 nM | 47 nM | 0.13 nM |
